From the nanobody polyreactivity screen of Harvey et al. (2022)

test: yeast display, Sf9 membrane polyspecificity reagent, FACS + sequencing; frameworks hold sequencing errors
Summary of the method: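 Galactose induction of a Saccharomyces cerevisiae BJ5465 synthetic nanobody display library ran 36–48 hours. The cells were then stained for 1 hour at 4 °C with 10% biotinylated, detergent-solubilized Sf9 membrane reagent, pulled down on streptavidin microbeads and FACS-sorted into low and high (top ~1%) gates on expression and reagent-binding fluorescence. Labels for polyreactivity follow the gate of origin.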

Row | Sequence | polyreactivity (PSR sort gate)
1 | QVQLQQSGGGLVQAGGSLRLSCAASGSIFDGFNMGWYRQAPGKAREFVAAIRYGASTYYADSVKGRFTVSRDNAKNSVYLQMNSLNPEDTAVYYCAKAYSDGYFPTFDYDYWGQGTQVTVSS | low polyreactivity
2 | QVQLVESGGGLVQAGGSLRLSCAATGSTFLVNAMGWYRQAPGKERELVAAISRGGSTYADSVKGRFTISRDNAKNTVYLQMYSMNPEDTAVYYCNARRYQSYRYYYWGQGTQVTVSS | high polyreactivity
3 | QVQLVESGGGLVQAGGSLRLSCAASGFIFAYNIIGWSRHAPGTERELVADISGTGSTNYADSVKGRFTISRDNAKNTVYLQMNSLKPEDTAVYYCAAAKFDVSFWLYFWGQGTQVTVSS | low polyreactivity
4 | QVQLVESGGGLVQAGGSLRLSCASSGITFSFYVMGWYRQAPGKERELVAAISRGGSTYYADSVKGRFTISRDNANNTVYLQMNSLKPEDSAVYYCAAVRLSRVYYWGQGTQVTVSS | high polyreactivity
5 | IIQAGGSLRLCCAASGRTISVYAMGWYTQAAGKERELIADITSGGSTNYADSVKGRFTISRDNAKNTVYLQRNSLKPEDTAVYYCVAERQIRSFWSSRTYVFGYWGQGTQVTVSS | low polyreactivity
6 | QVQLVESGGGLVQAGGSLRLSCAASGSTFNSYAMGWYRQAPGKEWELVAAITSSVGSTYYADSVKGRFTISRDNAKNTVYLQMNSLKPEDTAVYYCAADYFSFWYFSGYDYWGQGTQVTVSS | low polyreactivity
7 | QLQLVESGGGLVQAGGSLRLSCAASGFTFYVNAMGWYRQDPGKETEFVAAIDWSDTSTYYADSVKGRFTISRDNAKNTVYLQMISLKPVDTAVYYCAADFSPYDYDYWGQGTQVTVSS | high polyreactivity
8 | QVQLVESGGGLVQAGGTLRLSCAASGSMFDGNAMGWYRQAPGKERELVAAISRRGGSTYYADSVKGRFTISRDNAKNTVYLQKNSLKPEDTAVYYCNAYLSYFDGNYWGEGTQVTVSS | high polyreactivity
9 | QVQLVESGGGLVQAGGSLRLSCAASGFIFGFYAMGWYRQAPGKERELVAAISWSGGSTYYADSVKGRFTISRDNAKNTVYLQMNSLKPEDTAGYYCAAYFYYLDDAVTYDYWGQGTQVTVSS | low polyreactivity
10 | QVQLVESVGGLVQAGGSLRLSCAASGFIFYYNTMGWYRQAPGKERELVAAISSGGRTYYADSVKGRFTISRDNAKNTVYLQMNSLKPEYTAVYYCNVVTYVKYGYWGQGTQVTVSS | high polyreactivity
11 | QVQLVESGGGLVQAGGSLRLSCAASGSIFDRNAMGWYRQAPGKERELVAAITSGGSTYYADSVKGRFTISRDNAKNTVYLQMNSLKPEDTGVYYCNADADPPVPLYYWGQGTQVTVSS | low polyreactivity
12 | QVQLVESGGGLGQAGGSLRLSCAASGFNFYGYAMGWYRQAPGKERELVAAISSGGGRTYYADSVKGLFTISRDNAKNTVYLQMNSLKPEDTAVYYCAAKVYFYTGGGGEDYWGQGTKVTVSS | low polyreactivity
13 | QVQLVESGGGLVQAGGSLRLSCAASGFIFRRYAMGWYRQAPGKERELVAAISYNVVSTYYADSVKGRFTISRDNAKNTVYLQLNSLKPEVTAVYYCNTASSYRSFRYNYWGQGTQVTVSS | high polyreactivity
14 | QVQLVESGGGLVQAGGSLRLSCAASGSIFKKYAMGWYRQAPGKERELVAAITRGTYYADSVKGRFTISRDNAKNTVYLQMNSVKPVDTAVYYCNREYWGRGYYRVRGEYVYWGQGTQVTVSS | low polyreactivity
15 | QDQLVESGGGLVQAGGSLRLTCAASGSIFGWYAMGWYRQAPGKEMELFAAITNSGGSTYYADSVKGRFTISRDNAKKTVYIQMNSLKPEETAVYYCAAESWIRRWYGGGKKYDYWGQGTQVTVSS | high polyreactivity
16 | QVQLVESGGGLVQAGGSLRLSCAASGSIFDPYAMGWYRQAPGKERELVAVINDGGRTTYADSVKGRFTISRDNAKNTVYLQMNSLKPEDTAVYYCAATYYFSRWDLFGYWGQGTQVTVSS | low polyreactivity
17 | QVQLVESGGGLVQAGGSLRLSCAASGRIFSFYTMGWYRQAPGKERELVAAITWSGGSTYYADSVKGRFTISRDNAKNTVYLQMNSLKPEDTAVYYCAADFYLGPTWYYYWGQGTQVTVSS | high polyreactivity
18 | QVQVVESGGGLVQAGGSLRLSCAGSGSIFRVYAMGWYRQAPGKVREWVASISRRGGSTYYADSVKGRFTISRDNAKNTVYLQMNSLKPEDTAVDYCAAEFVIGGHGYDYWGQGTQVTVSS | high polyreactivity
19 | QVQLVESGGGLVQAGGSLRLSCAASGIIFRIYAMGWYRQAPGKERELVAAITYIGTSTYYADSVKGRFTISRDNAKNTVYLQMNSLKPEDTAVYFCYFYYVFRSDYWGQGTQVTVSS | low polyreactivity
20 | QVQLVESGGGLVQAGGSLRLSCAASGSIFWKNVMGSYRQAPGKERELVAGISQNGGSTTYADSVKGRFTISRDNAKNTVYLQMNSLKPEDTAVYYCAAKRYGPFKYGYWGQGTQVTVSS | high polyreactivity
21 | QVQLVDSGGGLVQAGGSLRLSCAASGSNFTKYAMGWYRQAPGKERELVAAILRSGDRTYYADSVKGRFTISRDNAKNTVYLQMTSMIPEDTAVYYCAAGYSQYWTDPQGFAYDYWGQGTQVTVSS | low polyreactivity
